# FireProtDB (doi:10.1016/s0014-5793(99)01395-2)
# B1: Endolysin, P03706 (parent)
# chain: MVEINNQRKAFLDMLAWSEGTDNGRQKTRNHGYDVIVGGELFTDYSDHPRKLVTLNPKLKSTGAGRYQLLSRWWDAYRKQLGLKDFSPKSQDAVALQQIKERGALPMIDRGDIRQAIDRCSNIWASLPGAGYGQFEHKADSLIAKFKEAGGTVREIDV
# Variants of: B1
# Conditions: Escherichia phage lambda, pH 7, Thermal, Fluorescence, phosphate buffer 100 mM, reversible: yes, structure 1AM7, whole UniProt chain shown; for ddG of mutation (higher = less stable) / unfolding free energy: 25 °C
Variant,ddG of mutation (higher = less stable),unfolding free energy,Tm,"change of melting temperature, mutant - wild type (higher = more stable)",unfolding enthalpy (van 't Hoff)
H48N,5 kcal/mol,2.1 kcal/mol,30.1 °C,-22.2 °C,60.8 kcal/mol
H31N H137N,-1.8 kcal/mol,8.9 kcal/mol,–,–,–
H31D,1.6 kcal/mol,5.5 kcal/mol,46.1 °C,-6.2 °C,99.8 kcal/mol
